“And” between values parts separate entries of the source, which are not always exact repeats. Equal entries are not always repeated.
Target: SECRET domain (smallpox virus-encoded chemokine receptor domain) of the vTNFR CrmD encoded by ectrom (ectromelia virus)
Assay: SPR

chemokine domain of human CX3CL1 (residues 1-76), mutant F49A (from UniProt P78423 25-100) (domain or fragment)
Kd: 3.75 µM and 4.64 µM and 4.2 µM

chemokine domain of human CX3CL1 (residues 1-76), mutant I19A (from UniProt P78423 25-100) (domain or fragment)
Kd: 1.28 µM and 0.641 µM and 0.96 µM | koff: 0.00689 s⁻¹ and 0.00578 s⁻¹ | kon: 5380 M⁻¹ s⁻¹ and 9020 M⁻¹ s⁻¹

chemokine domain of human CX3CL1 (residues 1-76), mutant K18A (from UniProt P78423 25-100) (domain or fragment)
Kd: 10.9 µM and 11.5 µM and 10.3 µM | koff: 0.0103 s⁻¹ and 0.00518 s⁻¹ | kon: 1000 M⁻¹ s⁻¹ and 450 M⁻¹ s⁻¹

chemokine domain of human CX3CL1 (residues 1-76), mutant L23A (from UniProt P78423 25-100) (domain or fragment)
Kd: 3.36 µM and 5.62 µM and 4.49 µM

chemokine domain of human CX3CL1 (residues 1-76), mutant R44A (from UniProt P78423 25-100) (domain or fragment)
Kd: 15.7 µM and 16.6 µM and 16.1 µM

chemokine domain of human CX3CL1 (residues 1-76), mutant R47A (from UniProt P78423 25-100) (domain or fragment)
Kd: 34.5 µM and 38.4 µM and 36.5 µM

— article PMC3145792
